Laboratory results published in article PMC4569481.

Target: Dihydrolipoamide dehydrogenase (Lpd) of P. aeruginosa, recombinant full length (Lpd^1-478) (P. aeruginosa strain PAO1) (UniProt Q9I3D1)
Assay: ELISA; Lpd (5 μg/ml) coated on microtiter plates overnight at 4°C; vitronectin (0.01–12.5 μg/ml), recombinant vitronectin constructs (5 μg/ml) or clusterin (0.01–20 μg/ml) added 1 h at RT; detected with antibodies, absorbance at 492 nm

Sequence of Dihydrolipoamide dehydrogenase (Lpd) of P. aeruginosa, recombinant full length (Lpd^1-478) (P. aeruginosa strain PAO1) (Q9I3D1 whole entry): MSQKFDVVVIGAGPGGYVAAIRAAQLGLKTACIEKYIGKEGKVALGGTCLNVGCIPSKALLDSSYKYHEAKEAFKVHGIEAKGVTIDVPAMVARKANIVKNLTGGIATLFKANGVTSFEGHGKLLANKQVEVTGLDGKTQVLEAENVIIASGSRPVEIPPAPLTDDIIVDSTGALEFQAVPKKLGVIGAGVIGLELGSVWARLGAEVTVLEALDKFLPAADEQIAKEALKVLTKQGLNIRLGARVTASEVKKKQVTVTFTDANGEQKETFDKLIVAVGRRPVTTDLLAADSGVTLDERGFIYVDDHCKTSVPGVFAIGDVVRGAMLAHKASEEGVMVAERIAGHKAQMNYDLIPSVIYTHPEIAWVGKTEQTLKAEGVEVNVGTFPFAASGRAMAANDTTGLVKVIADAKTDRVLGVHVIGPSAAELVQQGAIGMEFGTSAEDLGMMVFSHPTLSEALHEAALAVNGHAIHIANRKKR

vitronectin^80-353 (domain or fragment)
percent reduction of binding (ELISA signal; reference not named): 70%
